Experimental data reported in the DeepSol protein solubility set.

Test: soluble on expression in E. coli; label from the status in PepcDB or PDB records

Row | Sequence | soluble on expression in E. coli
1 | MDGTRTSLDIEEYSDTEVQKNQVLTLEEWQDKWVNGKTAFHQEQGHQLLKKHLDTFLKGKSGLRVFFPLCGKAVEMKWFADRGHSVVGVEISELGIQEFFTEQNLSYSEEPITEIPGTKVFKSSSGNISLYCCSIFDLPRTNIGKFDMIWDRGALVAINPGDRKCYADTMFSLLGKKFQYLLCVLSYDPTKHPGPPFYVPHAEIERLFGKICNIRRLEKVDAFEERHKSWGIDCLFEKLYLLTEK | not soluble
2 | MDIAQDWNGIPVPANPGNGMTWQLQDNVSDSFNYTSSEGNRPTAFTSKWKPSYINGWTGPGSTIFNAPQAWTNGSQLAIQAQPAGNGKSYNGIITSKNKIQYPVYMEIKAKIMDQVLANAFWTLTDDETQEIDIMEGYGSDRGGTWFAQRMHLSHHTFIRNPFTDYQPMGDATWYYNGGTPWRSAYHRYGCYWKDPFTLEYYIDGVKVRTVTRAEIDPNNHLGGTGLNQATNIIIDCENQTDWRPAATQEELADDSKNIFWVDWIRVYKPVAVSGGGNNSLEHHHHHH | soluble
3 | MDIVISGGTGLIGRAITEIQGNTYNVITRGPSRTDGNINLVNWNDLRKIRHCDVVINLAGYNIGSKRWNPKIKEEIIRSRIESTRRMVEFISSLDSKPEAFLSGSAIGYYGYGENTVFDENSPPGTGFLAELANAWEDEALKASRYTRTVILRTSNVLSSSGGFLARIMNSRSRRVYYFGDGDQPVSWIHIKDYVNAVKFLMENKDISGPVNMAAPSPVSFADLAHAIAREKGYKEMKIPEFIGKLILGSEMYRELMSGQRVAPKKLTGSGFSFQYPDLESAIKNLLEHHHHHH | not soluble
4 | MDKIHAMQLFIRVADLESFSRAAETLALPKGSVSRQIQALESHLGVRLLHRTTRRVQLTQDGMVYYERAKDLLSNLDELDGMFQHDPASISGRLRVDMPVGFAKKMVIPHLPTFLQQYPGIELELSSSDRQVDVIREGFDCVVRVGALKDSGLIARPLGKLTQINCASPDYLARFGYPQSLEDLADHALIHYASTLGVRPPGFEVMIDGAVRWVKTGGILTVNSTETYQAACIAGLGIIQVPRTGVREALRAGDLIEILPQYRAEPLPVSLIYPHRRNLSRRVNLFMEWLGGLMKAYVD | not soluble
5 | MDKSLLLELPILLCCFRALSGSLSMRNDAVNEIVAVKNNFPVIEIVQCRMCHLQFPGEKCSRGRGICTATTEEACMVGRMFKRDGNPWLTFMGCLKNCADVKGIRWSVYLVNFRCCRSHDLCNEDL | not soluble
6 | MDLICMYVFKGEESFGESIDVYGDYLIVKVGTEFLAVPKKSIKSVEDGRIVIGEFDEEEARELGRKWLEEKSKPVTLEELKSYGFGEEGE | not soluble
7 | MDLIPARIGLIYNPLGGWFRKHTARMQSLLATLPEIRQIQATDQIEFERAVTVVVEAKIGWLIVVGGDGTLQGVMSCLFECLPPDRWPEITIVPAGTTNMTALDLGMNGQAEQILSRIRQHLQRPGDMKQVRRP | not soluble
8 | MDLPVMPPVKPMLAKSVAKIPPDMQYEAKWDGFRAIVFRDGTEVELGSRTGKPLTRYFPELVEALRDRLPERCVIDGEIVIARDGRLDFDALTERIHPAESRVRMLAEKTPASFVAFDLLALADDSLLDTPLTERRALLESALSGVTAPVHVAPATTDREVAEQWFEQYEGAGLDGVIAKPLTLRYRQDERAMFKVKHERTADVVVAGYRLHKSGPVVGSLLLGLYDDRGALQHVGVSAAFPMKRRAELVEELEPLRMEDAAGHPWAAWSNEAAHETARLPGAPSRWSGKKDLSWVPLRPERVAEVAYDHMENGARFRHTARFRRWRPDRTPESCTYAQLEEPVSYDLTEILGSRGLEHHHHHH | soluble
9 | MDLQIIQNKIFEVRGCRVMLDFHLAELYQVETRALKQAVKRNLSRFPSDFAFQLTKDEWQGLITNCDKFPENIRHTPTPPLAFLEQGVAMLSSVLRSQTAIDVNISIMRAFVLMRQMSIGYEELLKRIEELEQSTDAQFSEVYQALTQLLSKPDPKPRKPIGYRTYDE | not soluble
10 | MDLSALREDFPLFAQRPELVYLDSAATSQKPRRVIEALRRYYETLNANVHRGAYRLSAEATEAYEEARRRLARFLNAEPKEIVFVRNTTEAMNLVAYAWGLRNLKEGDEVLVTEMEHHAGLVPWHLVAGLTGAKVKAIPLTEEGRLDLSALEDLLTERTRVVSLVHMSNVLGTINPVAEIARRAKEAGALVVVDGAQSAPHLPVDVKALGADFFALSGHKMLGPTGAGVLWGRYEVLEGMMPFLGGGEMILEVHVDRSTYAPPPQRFEAGTPPIAEAIALGEAACYLMEVGMEKVFAHDRALLDYALKRLEEVPRLRVYGPKGLDRGGVIPFTLGRLHAHDLATFLDQEGIAVRAGHHCAQPLHRKLGLAATARASFYLYNTKEEVDRFVEALLRIEAKYRAWL | soluble
